Data taken from US20150111820A1, “NOVEL USE OF INSULIN DERIVATIVES” (Novo Nordisk A/S, priority 2012, published 2015).

Design: species or system humans
Settings: in vivo
Experimental: The simulation was performed using the software WinNonlin Professional 5.3 (Pharsight Inc., Mountain View, Calif., USA).

## A14E, B25H, desB27, B29K(N^ε-(octadecandioyl-γGlu), desB30 human insulin [Compound 4]
  terminal half-life compared with Compound 6: almost the same terminal half-life

## A14E, B25H, B29K(N^ε-octadecandioyl-γGlu-OEG-OEG), desB30 human insulin [Compound 6]
  elimination half-life: 52 h
  elimination rate constant: 0.013 h⁻¹
